Experimental data taken from US20240150451A1 (Janssen / Centocor, published 2024).

T1: Tau peptide Start 415 Stop 434
T1 peptide: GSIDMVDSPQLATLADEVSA

T2: Tau peptide Start 417 Stop 436
T2 peptide: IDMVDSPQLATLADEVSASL

T3: Tau peptide Start 419 Stop 438
T3 peptide: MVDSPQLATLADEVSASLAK

T4: Tau peptide Start 421 Stop 440
T4 peptide: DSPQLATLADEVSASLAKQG

T5: Tau peptide Start 422 Stop 441
T5 peptide: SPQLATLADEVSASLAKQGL

T6: Tau peptide Start 3 Stop 22 (Synthetic linear peptide immobilised on a Pepscan array; the attachment to the array cannot be carried by the letters.)
T6 peptide: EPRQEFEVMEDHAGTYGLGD

T7: Tau peptide Start 411 Stop 430
T7 peptide: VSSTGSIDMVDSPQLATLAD

T8: Tau peptide Start 413 Stop 432
T8 peptide: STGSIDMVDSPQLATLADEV


Assays:
[1] = biological target: T9, recombinant full-length tau 2N4R (control tau) (human, UniProt P10636 2-758); test: direct ELISA on full-length 2N4R Tau coated at 1 ng/mL
T9 construct: also called recombinant WT (2N4R) tau; Rec; Tau
Protocol: (§1) Binding to recombinant WT (2N4R) tau was analyzed by ELISA. Full-length Tau protein (1 ng/mL or 10 ng/mL) was directly coated to the plate and incubated with different concentrations of either recombinantly- or hybridoma-produced PT/66, PT/69 or hTau/60 antibodies (FIG. 1). […] No substantial difference was observed between binding profiles of recombinant and hybridoma produced antibodies.

[2] = biological target: T9, recombinant full-length tau 2N4R …; test: direct ELISA on full-length 2N4R Tau coated at 10 ng/mL
Protocol: as §1

[3] = biological target: T1, Tau peptide Start 415 Stop 434; test: Pepscan ELISA on an array of linear 20-mer Tau 441 peptides; set-up: peptide ELISA signal (no name or unit printed): unit not given here
Excerpt: (§2) An amino functionalized polypropylene support was obtained by grafting with a proprietary hydrophilic polymer formulation, followed by reaction with t-butyloxycarbonyl-hexamethylenediamine (BocHMDA) using dicyclohexylcarbodiimide (DCC) with N-hydroxybenzotriazole (HOBt), and subsequent cleavage of the Boc-groups using trifluoroacetic acid (TFA). Standard Fmoc-peptide synthesis was used to synthesize peptides on the amino-functionalized solid support by custom modified JANUS liquid handling stations (Perkin Elmer). Synthesis of structural mimics was done using Pepscan's proprietary Chemically Linked Peptides on Scaffolds (CLIPS) technology. CLIPS technology allows to structure peptides into single loops, double loops, triple loops, sheet-like folds, helix-like folds, and combinations thereof. CLIPS templates are coupled to cysteine residues. The side-chains of multiple cysteines in the peptides are coupled to one or two CLIPS templates. For example, a 0.5 mM solution of the P2 CLIPS (2,6-bis(bromomethyl)pyridine) is dissolved in ammonium bicarbonate (20 mM, pH 7.8)/acetonitrile (1:3 (v/v)). This solution is added onto the peptide arrays. The CLIPS template will bind to side-chains of two cysteines as present in the solid-phase bound peptides of the peptide-arrays (455 wells plate with 3 μl wells). The peptide arrays are gently shaken in the solution for 30 to 60 minutes while completely covered in solution. Finally, the peptide arrays are washed extensively with excess of H₂O and sonicated in disrupt-buffer containing 1% SDS/0.1% beta-mercaptoethanol in PBS (pH 7.2) at 70° C. for 30 minutes, followed by sonication in H₂O for another 45 minutes. The T3 CLIPS carrying peptides were made in a similar way but now with three cysteines.
(§3) The binding of antibodies (recombinantly expressed as IgG2a) to each of the synthesized peptides was tested in a pepscan-based ELISA. The peptide arrays were incubated with primary antibody solution (overnight at 4° C.). After washing, the peptide arrays were incubated with a 1/1000 dilution of an appropriate antibody peroxidase conjugate (SBA; Table 4) for one hour at 25° C. After washing, the peroxidase substrate 2,2′-azino-di-3-ethylbenzthiazoline sulfonate (ABTS) and 20 μl/ml of 3 percent H₂O₂ were added. After one hour, the color development was measured.

[4] = biological target: T2, Tau peptide Start 417 Stop 436; test: as above; set-up: peptide ELISA signal (no name or unit printed): unit not given here
Excerpt: as §2, §3

[5] = biological target: T3, Tau peptide Start 419 Stop 438; test: as above; set-up: peptide ELISA signal (no name or unit printed): unit not given here
Excerpt: as §2, §3

[6] = biological target: T4, Tau peptide Start 421 Stop 440; test: as above; set-up: peptide ELISA signal (no name or unit printed): unit not given here
Excerpt: as §2, §3

[7] = biological target: T5, Tau peptide Start 422 Stop 441; test: as above; set-up: peptide ELISA signal (no name or unit printed): unit not given here
Excerpt: as §2, §3

[8] = biological target: Tau peptide Start 1 Stop 20 (Synthetic linear peptide immobilised on a Pepscan array; the attachment to the array cannot be carried by the letters.); test: as above; set-up: peptide ELISA signal (no name or unit printed): unit not given here
Excerpt: as §2, §3

[9] = biological target: T6, Tau peptide Start 3 Stop 22; test: as above; set-up: peptide ELISA signal (no name or unit printed): unit not given here
Excerpt: as §2, §3

[10] = biological target: T7, Tau peptide Start 411 Stop 430; test: as above; set-up: peptide ELISA signal (no name or unit printed): unit not given here
Excerpt: as §2, §3

[11] = biological target: T8, Tau peptide Start 413 Stop 432; test: as above; set-up: peptide ELISA signal (no name or unit printed): unit not given here
Excerpt: as §2, §3

[12] = biological target: T10, PHF-tau (paired helical filament tau; sarcosyl insoluble prep from human AD brain) (human, UniProt P10636-8 2-441, limits assumed, hyper-phosphorylated (sites not specified)); test: SPR (ProteOn), mAb on PHF-tau, bivalent analyte fit; apparent affinity (avidity)
T10 construct: also called aggregated PHF Tau; aggregated tau (AD brain)
Protocol: (§4) The interactions with PHF-tau and recombinant tau were assessed by SPR on ProteOn (Bio-Rad, Hercules, CA) instrument for PT66, PT69, hTau60 anti-tau antibodies and their corresponding Fab fragments. Because of the multimeric/aggregated nature of PHF-tau with multiple copies of the epitope, and the bivalent nature of IgGs, mAb affinity was influenced by avidity in this study format. Fab affinity provides information on the intrinsic affinity of the antibody. Representative sensorgrams of mAbs and their Fab fragments binding to PHF Tau are shown in FIG. 3 and a summary is represented in Table 1 below. HT7 was used as a reference.

[13] = biological target: T10, PHF-tau (paired helical filament tau; …); test: SPR (ProteOn), Fab on PHF-tau, 1:1 Langmuir fit
Protocol: as §4

[14] = biological target: T9, recombinant full-length tau 2N4R …; test: SPR (ProteOn), Fab on recombinant full-length tau, 1:1 Langmuir fit
Protocol: as §4

Tau peptide Start 1 Stop 20 (Synthetic linear peptide immobilised on a Pepscan array; the attachment to the array cannot be carried by the letters.), sequence (peptide, as listed by the source limits assumed): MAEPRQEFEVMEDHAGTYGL

EC50 (read off the curve) [1] [µg/mL] | EC50 (read off the curve) [2] [µg/mL] | peptide ELISA signal (no name or unit printed) [3] | peptide ELISA signal (no name or unit printed) [4] | peptide ELISA signal (no name or unit printed) [5] | peptide ELISA signal (no name or unit printed) [6] | peptide ELISA signal (no name or unit printed) [7] | peptide ELISA signal (no name or unit printed) [8] | peptide ELISA signal (no name or unit printed) [9] | peptide ELISA signal (no name or unit printed) [10] | peptide ELISA signal (no name or unit printed) [11] | Kd [12] [nM] | Kd [13] [nM] | Kd [14] [nM] | binding result [3] | binding result [4] | binding result [5] | binding result [11] | Binder
~0.01 | ~0.005 | – | – | – | – | – | – | – | – | – | – | – | – | – | – | – | – | PT/66 hybridoma (antibody, V domains shown, parent of m2; also called hybridoma-produced PT/66) VH: QVQLQQPGAELVKPGASVKMSCKASGYTFTSYWITWVKQRPGQGLEWIGDIHPGRGSTKSNEKFKSKATLTVDTSSSTAYMQFSSLTSEDSAVYYCARRWGFDYWGQGTTLTVSS VL: DIVITQDELSNPVTSGESVSISCRSSKSLLYKDGKTYLNWFLQRPGQSPQLLIYLMSTRASGVSDRFSGSGSGTDFTLEISRVKAEDVGVYYCQQLVDYPLTFGAGTKLELK
~0.04 | ~0.01 | 2930 | 2940 | 2930 | 2930 | 2950 | 40 | 45 | 50 | 2520 | 0.056 | – | – | – | – | – | – | PT66 monoclonal antibody (recombinant, mouse IgG2a/kappa) (antibody, V domains shown, also called PT66 (PT1B545)) VH: QVQLQQPGAELVKPGASVKMSCKASGYTFTSYWITWVKQRPGQGLEWIGDIHPGRGSTKSNEKFKSKATLTVDTSSSTAYMQFSSLTSEDSAVYYCARRWGFDYWGQGTTLTVSS VL: DIVITQDELSNPVTSGESVSISCRSSKSLLYKDGKTYLNWFLQRPGQSPQLLIYLMSTRASGVSDRFSGSGSGTDFTLEISRVKAEDVGVYYCQQLVDYPLTFGAGTKLELKR
– | – | – | – | – | – | – | – | – | – | – | – | 0.514 | 0.04 | – | – | – | – | PT66 Fab (chimeric: mouse variable domains, human IgG1/kappa constant domains, His tag) (Fab, V domains shown, Fab expressed in HEK293F cells; also called PT66 Fab fragment; not shown: His tag at the C-terminus of the heavy chain; human kappa light chain constant domain) VH: QVQLQQPGAELVKPGASVKMSCKASGYTFTSYWITWVKQRPGQGLEWIGDIHPGRGSTKSNEKFKSKATLTVDTSSSTAYMQFSSLTSEDSAVYYCARRWGFDYWGQGTTLTVSS VL: DIVITQDELSNPVTSGESVSISCRSSKSLLYKDGKTYLNWFLQRPGQSPQLLIYLMSTRASGVSDRFSGSGSGTDFTLEISRVKAEDVGVYYCQQLVDYPLTFGAGTKLELK
– | – | 2830 | 2920 | 2920 | 2930 | 2930 | 30 | 38 | 43 | 1380 | – | – | – | – | – | – | – | PT69 monoclonal antibody (recombinant, mouse IgG2a/kappa) (antibody, V domains shown, also called PT69/PT87; PT69 (PT1B548)) VH: QVQLQQPGAELVKPGASVKMSCKASGYTFTNYWITWVKQRPGQGLEWIGDIYPGSGRTKSNEKFKNKATLTADTSSSTAYMQLSSLTSEDSAVYYCTRRWGLDYWGQGTTLTVSS VL: DIVITQDELSNPVTSGESVSISCRSNKSLLYKDGKTYLNWFLQRPGQSPQLLIYLMSTRASGVSDRFSGSGSGTDFTLEISRVKAEDVGVYYCQQLVDYPLTFGAGTKLELKR
~0.01 | ~0.01 | 24 | 48 | 45 | 2910 | 2920 | 48 | 44 | 36 | 46 | 0.069 | – | – | no binding | no binding | no binding | no binding | hTau60 monoclonal antibody (recombinant, mouse IgG2a/kappa) (antibody, V domains shown, also called hTau60 (PT1B469)) VH: EVQLQQSGPELVKPGTSVKISCKVFGYTFTDYYMNWVKQSHGKSLEWIGDINPDNGETTYNQKFKGKATLTVDKSSSTAYMELRSLTSEDSAVYYCAKGATFVYWGQGTLVTVSA VL: DVVMTQTPLSLPVSLGDQASISCISSQSLVHSTGTTFLHWFLQKPGQSPKLLIYKVSNRFSGVPDRFSGSGSGTDFTLKISRVEAEDLGFYFCSQSTYFPLTFGSGTKLEIKR
~0.005 | ~0.005 | – | – | – | – | – | – | – | – | – | – | – | – | – | – | – | – | hTau/60 hybridoma (antibody, V domains shown, parent of m1; also called hybridoma-produced hTau/60) VH: EVQLQQSGPELVKPGTSVKISCKVFGYTFTDYYMNWVKQSHGKSLEWIGDINPDNGETTYNQKFKGKATLTVDKSSSTAYMELRSLTSEDSAVYYCAKGATFVYWGQGTLVTVSA VL: DVVMTQTPLSLPVSLGDQASISCISSQSLVHSTGTTFLHWFLQKPGQSPKLLIYKVSNRFSGVPDRFSGSGSGTDFTLKISRVEAEDLGFYFCSQSTYFPLTFGSGTKLEIK
– | – | – | – | – | – | – | – | – | – | – | – | 0.427 | 0.026 | – | – | – | – | hTau60 Fab (chimeric: mouse variable domains, human IgG1/kappa constant domains, His tag) (Fab, V domains shown, Fab expressed in HEK293F cells; also called hTau60 Fab fragment; not shown: His tag at the C-terminus of the heavy chain; human kappa light chain constant domain) VH: EVQLQQSGPELVKPGTSVKISCKVFGYTFTDYYMNWVKQSHGKSLEWIGDINPDNGETTYNQKFKGKATLTVDKSSSTAYMELRSLTSEDSAVYYCAKGATFVYWGQGTLVTVSA VL: DVVMTQTPLSLPVSLGDQASISCISSQSLVHSTGTTFLHWFLQKPGQSPKLLIYKVSNRFSGVPDRFSGSGSGTDFTLKISRVEAEDLGFYFCSQSTYFPLTFGSGTKLEIK
